Source: patent US20260258113

Target: alpha globin, endogenous, in perfused human omental arteries, P69905
Sequence (P69905 2-142): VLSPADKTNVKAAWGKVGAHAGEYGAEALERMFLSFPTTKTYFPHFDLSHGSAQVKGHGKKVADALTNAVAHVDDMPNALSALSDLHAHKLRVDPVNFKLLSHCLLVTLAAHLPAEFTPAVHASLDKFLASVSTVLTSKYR

B1: endothelial nitric oxide synthase (eNOS), endogenous, in human resistance arteries (protein)
chain: GNLKSVAQEPGPPCGLGLGLGLGLCGKQGPATPAPEPSRAPASLLPPAPEHSPPSSPLTQPPEGPKFPRVKNWEVGSITYDTLSAQAQQDGPCTPRRCLGSLVFPRKLQGRPSPGPPAPEQLLSQARDFINQYYSSIKRSGSQAHEQRLQEVEAEVAATGTYQLRESELVFGAKQAWRNAPRCVGRIQWGKLQVFDARDCRSAQEMFTYICNHIKYATNRGNLRSAITVFPQRCPGRGDFRIWNSQLVRYAGYRQQDGSVRGDPANVEITELCIQHGWTPGNGRFDVLPLLLQAPDDPPELFLLPPELVLEVPLEHPTLEWFAALGLRWYALPAVSNMLLEIGGLEFPAAPFSGWYMSTEIGTRNLCDPHRYNILEDVAVCMDLDTRTTSSLWKDKAAVEINVAVLHSYQLAKVTIVDHHAATASFMKHLENEQKARGGCPADWAWIVPPISGSLTPVFHQEMVNYFLSPAFRYQPDPWKGSAAKGTGITRKKTFKEVANAVKISASLMGTVMAKRVKATILYGSETGRAQSYAQQLGRLFRKAFDPRVLCMDEYDVVSLEHETLVLVVTSTFGNGDPPENGESFAAALMEMSGPYNSSPRPEQHKSYKIRFNSISCSDPLVSSWRRKRKESSNTDSAGALGTLRFCVFGLGSRAYPHFCAFARAVDTRLEELGGERLLQLGQGDELCGQEEAFRGWAQAAFQAACETFCVGEDAKAAARDIFSPKRSWKRQRYRLSAQAEGLQLLPGLIHVHRRKMFQATIRSVENLQSSKSTRATILVRLDTGGQEGLQYQPGDHIGVCPPNRPGLVEALLSRVEDPPAPTEPVAVEQLEKGSPGGPPPGWVRDPRLPPCTLRQALTFFLDITSPPSPQLLRLLSTLAEEPREQQELEALSQDPRRYEEWKWFRCPTLLEVLEQFPSVALPAPLLLTQLPLLQPRYYSVSSAPSTHPGEIHLTVAVLAYRTQDGLGPLHYGVCSTWLSQLKPGDPVPCFIRGAPSFRLPPDPSLPCILVGPGTGIAPFRGFWQERLHDIESKGLQPTPMTLVFGCRCSQLDHLYRDEVQNAQQRGVFGRVLTAFSREPDNPKTYVQDILRTELAAEVHRVLCLERGHMFVCGDVTMATNVLQTVQRILATEGDMELDEAGDVIGVLRDQQRYHEDIFGLTLRTQEVTSRIRTQSFSLQERQLRGAVPWAFDPPGSDTNSP
For B1, the “ROI average fluorescence lifetime after co-labelling with the alpha globin and eNOS antibodies (FLIM, FRET-like shift)” value was “the eNOS + HBA ROIs lie at about 2.9 to 3.6 ns, below HBA alone (about 3.6 to 4.2 ns) and eNOS alone (about 3.8 to 4.15 ns); p<0.0001 printed for both comparisons” and the “fluorescence lifetime histogram after co-labelling with the alpha globin and eNOS antibodies (FLIM, FRET-like shift)” value was “the co-labelled curve d (HBA + eNOS) peaks at about 3.95 ns, left of HBA only (b, about 4.2 ns), eNOS only (c, about 4.25 ns) and unstained (a, about 4.35 ns)”.
